The experiment deals with T1, ACE2 tested for a complex with GMI by immunoprecipitation (human, UniProt Q9BYF1 18-805).
T1 construct: also called hACE2; angiotensin converting enzyme 2
Kind of experiment: immunoprecipitation.

T1 sequence (Q9BYF1 18-805 limits assumed, one chain of several): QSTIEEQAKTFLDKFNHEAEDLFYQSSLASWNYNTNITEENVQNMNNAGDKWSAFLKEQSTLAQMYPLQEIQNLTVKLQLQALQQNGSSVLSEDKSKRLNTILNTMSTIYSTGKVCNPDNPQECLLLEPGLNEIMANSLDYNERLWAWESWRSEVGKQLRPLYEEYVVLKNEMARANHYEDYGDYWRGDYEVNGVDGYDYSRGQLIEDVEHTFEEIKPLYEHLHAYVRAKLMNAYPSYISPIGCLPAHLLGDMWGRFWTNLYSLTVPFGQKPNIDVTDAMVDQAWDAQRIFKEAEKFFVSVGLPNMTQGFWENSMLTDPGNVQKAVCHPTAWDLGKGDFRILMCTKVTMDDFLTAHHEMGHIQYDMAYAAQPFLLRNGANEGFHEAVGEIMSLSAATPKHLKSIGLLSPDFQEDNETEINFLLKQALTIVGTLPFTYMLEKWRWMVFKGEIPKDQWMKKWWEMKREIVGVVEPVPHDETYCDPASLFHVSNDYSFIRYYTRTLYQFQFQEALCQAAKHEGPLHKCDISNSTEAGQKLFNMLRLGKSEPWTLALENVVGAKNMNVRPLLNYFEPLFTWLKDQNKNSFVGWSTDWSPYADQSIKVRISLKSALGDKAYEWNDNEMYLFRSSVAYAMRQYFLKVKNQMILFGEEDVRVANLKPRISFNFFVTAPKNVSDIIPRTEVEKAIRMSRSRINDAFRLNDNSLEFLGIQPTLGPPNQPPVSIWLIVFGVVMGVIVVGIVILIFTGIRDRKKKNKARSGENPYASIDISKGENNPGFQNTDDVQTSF

B1: Ganoderma immunomodulatory protein (GMI) from Ganoderma microsporum (other)
chain: MSDTALIFTLAWNVKQLAFDYTPNWGRGRPSSFIDTVTFPTVLTDKAYTYRVVVSGKDLGVRPSYAVESDGSQKINFLEYNSGYGIADTNTIQVYVIDPDTGNNFIVAQWN
notes: also called His tagged-GMI; fungal immunomodulatory protein (FIP)
Take B1: the binding result is given as “no binding”.

Source of the values: patent US20230233632A1 (MYCOMAGIC BIOTECHNOLOGY, published 2023).
